Target: His-tagged CP47 (PSII core antenna protein CP47) (Synechocystis sp. PCC 6803, UniProt P05429 1-507)
Experiment: AUC

Chain of His-tagged CP47 (PSII core antenna protein CP47) (P05429 whole entry): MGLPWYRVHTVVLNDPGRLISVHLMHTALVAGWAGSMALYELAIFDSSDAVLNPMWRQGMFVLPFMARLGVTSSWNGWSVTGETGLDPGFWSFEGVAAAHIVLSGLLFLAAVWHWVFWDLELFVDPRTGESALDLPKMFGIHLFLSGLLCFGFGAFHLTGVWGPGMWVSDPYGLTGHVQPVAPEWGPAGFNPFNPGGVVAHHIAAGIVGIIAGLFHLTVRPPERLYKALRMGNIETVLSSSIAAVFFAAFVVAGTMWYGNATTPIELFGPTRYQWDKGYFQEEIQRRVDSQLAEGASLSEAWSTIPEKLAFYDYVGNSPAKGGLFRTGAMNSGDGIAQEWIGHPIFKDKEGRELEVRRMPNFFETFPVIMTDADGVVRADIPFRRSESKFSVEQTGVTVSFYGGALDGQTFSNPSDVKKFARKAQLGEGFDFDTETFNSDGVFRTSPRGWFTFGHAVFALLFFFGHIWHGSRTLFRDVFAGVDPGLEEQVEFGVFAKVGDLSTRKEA

B1: CP43 (PSII core antenna protein) (natural protein)
chain: not shown
stoichiometry N: ~1

From publication doi:10.1101/660712 (bioRxiv, 2019)
